Several values for one entry are separate records, joined by “and”; a condition that tells them apart may be missing. Identical values can stand only once. Like-named read-outs stand apart in the source and are kept apart here.
B1: Hu286B4-10 (antibody, V domains shown)
VH: EVQLQESGPGLVKPSDTLSLTCAVSGYSISNNYYWNWIRQPPGKGLEWIGYITYDGSNNYNPSLKNRITMSRDTSKNQFSLKLSSVTAVDTAVYYCARGGGQLRFDYWGQGTTVTVSS
VL: SIVMTQSPSSLSASVGDRVTITCKASQSVSNEVTWYQQKPGKSPKMLIYYASNRYTGVPDRFSGSGYGTDFTFTISSLQPEDIATYFCQQDYSSPWTFGGGTKVEIK
notes: humanized
B2: 257F1 chimeric antibody (antibody, V domains shown)
VH: QVLLQQSGAEVARPGASVKLSCKASGYTFTSYGLNWLRQRTGQGLEWIGEIYPRSENTHYNEKFKGKATLTADKSSSTAYMELRSLTSEDSAVYFCARGDWDFDHWGQGTTLTVSS
VL: EILLTQSPAIIPASPGEKVTITCSASSSVSYMNWYQQKPGSSPKIWIYGISNLASGVPARFSGSGSGTFFSFTINSMEAEDVATYYCQQRSSYPRTFGGGTKLEIK
notes: chimeric mAb
B3: 24F10 chimeric antibody (antibody, V domains shown)
VH: EVQLVESGGGLVKPGGSLKLSCAASGFTFSDYGMHWVRQAPEKGLEWVAYISSGTSTIYYTDTVKGRFTISRDNAKNTLFLQMTSLRSEDTAMYYCARGGDGYYRSTMDYWGQGISVTVSS
VL: DIVLTQSPASLAVSLGQRATISCRASQSVSSSSYSYMHWYQQKPGQPPKLLIKSASNLASGVPARFSGSGSGTDFTLNIHPVEEEDSATYYCQHSWEVPRTFGGGTKLEIK
notes: chimeric mAb
B4: 14G12 chimeric antibody (antibody, V domains shown)
VH: EVQLQQSGPELVKPGASVKISCKASGYAFSSSWMNWVKQRPGKGLEWIGRIYREDGHTNYNGKFKGKATLTADKSSTTAYMQLTSLTSEDSAVYFCANGGAMDYWGQGTSVTVSS
VL: DIQMTQSTSSLSASLGDRVTISCRASQDISNYLNWYQQKPDGTVKLLIYYTSRLHSGVPSRFSGSGSGTDYSLTISNLEQEDIATYFCQQDNTLPWTFGGGTKLEIK
notes: chimeric mAb
B5: 393E9 chimeric antibody (antibody, V domains shown)
VH: EVKLVESGGGLVQPGGSLSLSCAASGFTFTDYYMSWVRQPPGKALEWLGFIRNKGNGYTTENSASVKGRFTISRDNSQSILYLQMNALRAEDSATYYCARYRGNPHYAMDYWGQGTSVTVSS
VL: DIVLTQFPASLAVSLGQRATISCRASESVEFYGTSFLQWYQQKPGQPPKLLIYGASNVESGVPARFSGSGSGTDFSLSIHPVEEDDIAMYFCQQSRKVPSTFGGGTKLEIK
notes: chimeric mAb

Legend:
[1] = biological target: T1, human 5T4-His protein (human, UniProt Q13641 32-355); assay: ELISA, coated human 5T4
T1 construct: also called recombinant 5T4 protein (human 5T4-his tag); human 5T4 protein; not shown: His tag
T1 sequence (looked up): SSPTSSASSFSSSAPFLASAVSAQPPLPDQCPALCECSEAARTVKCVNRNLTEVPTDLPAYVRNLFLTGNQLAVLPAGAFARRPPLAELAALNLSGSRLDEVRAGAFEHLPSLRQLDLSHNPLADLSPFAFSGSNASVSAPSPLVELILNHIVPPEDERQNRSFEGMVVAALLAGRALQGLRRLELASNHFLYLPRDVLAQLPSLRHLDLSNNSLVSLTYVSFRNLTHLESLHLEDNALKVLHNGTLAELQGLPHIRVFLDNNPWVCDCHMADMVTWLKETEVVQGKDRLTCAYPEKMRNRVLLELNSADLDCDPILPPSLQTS
Procedure: To evaluate the binding activity of clones, the 286B4 chimeric antibody along with 286B4 humanized mAbs were subjected to ELISA test.
Briefly, microtiter plates were coated with human 5T4-His protein at 1 μg/ml in PBS, 100 μl/well at 4° C. overnight, then blocked with 150 μl/well of 1% BSA. 4-fold dilutions of tested antibodies starting from 20 nM were added to each well and incubated for 1 hour at 37° C. The plates were washed with PBS/Tween and then incubated with Goat Anti-Human IgG-HRP for 30 mins at 37° C. After washing, the plates were developed with TMB substrate and analyzed by spectrophotometer at OD 450 nm. As shown in FIG. 16 and Table 15, most of the humanized clones bound to human 5T4 with high potency.

[2] = biological target: T1, human 5T4-His protein; assay: SPR Biacore, Protein A capture
Procedure: (§1) The binding of the 286B4 humanized antibodies to recombinant 5T4 protein (human 5T4-his tag) was tested with Biacore using a capture method. The mAbs were captured using Protein A chip. A serial dilution of human 5T4-his tag protein was injected over captured antibody for 3 mins at a flow rate of 30 μl/min. The antigen was allowed to dissociate for 280-800 s. All the experiments were carried out on a Biacore T200. Data analysis was carried out using the Biacore T200 evaluation software.

[3] = biological target: T1, human 5T4-His protein; assay: ELISA, coated 5T4-His
Outline: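 Plates coated overnight at 4° C with 1 μg/ml 5T4-His, blocked with 1% BSA. Antibodies in 4-fold dilutions from 20 nM, 1 h at 37° C; bound antibody detected with anti-human IgG-HRP (30 min, 37° C), TMB development, OD 450 nm.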

[4] = biological target: T1, human 5T4-His protein; assay: SPR Biacore, Protein A capture; remark: listed apart in the source
Procedure: as §1, with “the chimeric mAbs from these clones against” for “the 286B4 humanized antibodies to”, “for 2-3” for “for 3”, “for 360-1000” for “for 280-800”, “using” for “using the”

[5] = biological target: T1, human 5T4-His protein; assay: ELISA, coated antigen
Procedure: (§2) ELISA testing was carried out to evaluate the binding of chimeric antibodies to human and cynomolgus, respectively. The antibody portion of naptumomab (NeoTX) that targets 5T4 (abbreviated as naptumomab in the present disclosure), was generated and used as a benchmark.
(§3) Briefly, microtiter plates were coated with human and cynomolgus 5T4 proteins at […] in PBS, 100 μl/well at 4° C. overnight, then blocked with 150 μl/well of 1% BSA. Serial dilutions of chimeric antibodies were added to each well and incubated for 1 hour at RT. The plates were washed with PBS/Tween and then incubate with mouse-anti-human IgG Fc antibody conjugated with Horse Radish Peroxidase (HRP) for 30 mins at RT. After washing, the plates were developed with TMB substrate and analyzed by spectrophotometer at OD 450 nm. All the 5T4 chimeric mAbs bound to human and cynomolgus 5T4 (FIG. 1-2 and Table 3).

[6] = biological target: T2, cynomolgus 5T4 protein (cynomolgus monkey, UniProt Q4R8Y9 35-355, limits assumed); assay: ELISA, coated antigen
T2 construct: Coated protein in ELISA; the screening step names a cyno 5T4-His protein; also called cyno 5T4; recombinant cyno 5T4-His protein
T2 sequence (looked up): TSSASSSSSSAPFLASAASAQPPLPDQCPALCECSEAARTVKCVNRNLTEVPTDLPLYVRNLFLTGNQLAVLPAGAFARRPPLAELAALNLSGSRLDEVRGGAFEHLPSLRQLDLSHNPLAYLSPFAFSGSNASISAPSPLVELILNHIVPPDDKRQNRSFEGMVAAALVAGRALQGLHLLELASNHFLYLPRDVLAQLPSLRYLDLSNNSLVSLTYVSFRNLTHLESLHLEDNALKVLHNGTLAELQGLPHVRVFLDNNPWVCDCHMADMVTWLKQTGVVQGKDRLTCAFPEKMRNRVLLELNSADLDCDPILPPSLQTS
Procedure: as §2, §3

[7] = biological target: T1, human 5T4-His protein; assay: competitive ELISA, coated human 5T4, vs 257F1-biotin
[8] = biological target: T1, human 5T4-His protein; assay: as above; remark: listed apart in the source
Procedure: Competitive ELISA was carried out to classify the test 5T4 mAbs based on the binding epitope to human 5T4.
Briefly, microtiter plates were coated with human 5T4 proteins at 0.5 μg/ml in PBS, 100 μl/well at 4° C. overnight, then blocked with 150 μl/well of 1% BSA. Serial dilutions of chimeric antibodies as well as 0.2 ug/ml biotin-conjugated reference mAb were added to each well and incubated for 1 hour at RT. The plates were washed with PBS/Tween and then incubate with streptavidin-HRP for 15 mins at RT. After washing, the plates were developed with TMB substrate and analyzed by spectrophotometer at OD 450 nm. According to the competition performance with reference mAbs, the 5T4 mAbs were divided into four bins (Bin A-D), as shown in FIG. 3-8 and Table 4.

[9] = biological target: T1, human 5T4-His protein; assay: as above; remark: listed apart in the source
[10] = biological target: T1, human 5T4-His protein; assay: competitive ELISA, coated human 5T4, vs 159D5-biotin
[11] = biological target: T1, human 5T4-His protein; assay: competitive ELISA, coated human 5T4, vs naptumomab-biotin
[12] = biological target: T1, human 5T4-His protein; assay: SPR Biacore, Protein A capture; remark: listed apart in the source
Outline: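 Humanized 14G12 antibodies captured on a Protein A chip; serial dilutions of human 5T4-His injected for 120 s-180 s at 30 μl/min, with dissociation over 360 s-1000 s on a Biacore T200.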

[13] = biological target: T1, human 5T4-His protein; assay: competitive ELISA, coated human 5T4, vs naptumomab-biotin; remark: listed apart in the source
[14] = biological target: T1, human 5T4-His protein; assay: SPR Biacore, Protein A capture; remark: listed apart in the source
Procedure: as §1, with “393E9” for “286B4”

[15] = biological target: T1, human 5T4-His protein; assay: ELISA, coated 5T4-His; remark: listed apart in the source
Outline: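 Plates coated with human 5T4-His at 1 μg/ml overnight at 4 °C, blocked with 1% BSA, then 4-fold antibody dilutions from 20 nM incubated 1 h at 37 °C. Bound antibody detected with anti-human IgG-HRP (30 min, 37 °C) and TMB, OD 450 nm.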

[16] = biological target: T3, human 5T4 expressed on cells (human, UniProt Q13641 32-420); assay: flow cytometry, CHOK1-hu5T4 cells
T3 construct: whole, on cells; also called CHOK1-hu5T4; CHO-K1-expressing human 5T4
T3 sequence (looked up): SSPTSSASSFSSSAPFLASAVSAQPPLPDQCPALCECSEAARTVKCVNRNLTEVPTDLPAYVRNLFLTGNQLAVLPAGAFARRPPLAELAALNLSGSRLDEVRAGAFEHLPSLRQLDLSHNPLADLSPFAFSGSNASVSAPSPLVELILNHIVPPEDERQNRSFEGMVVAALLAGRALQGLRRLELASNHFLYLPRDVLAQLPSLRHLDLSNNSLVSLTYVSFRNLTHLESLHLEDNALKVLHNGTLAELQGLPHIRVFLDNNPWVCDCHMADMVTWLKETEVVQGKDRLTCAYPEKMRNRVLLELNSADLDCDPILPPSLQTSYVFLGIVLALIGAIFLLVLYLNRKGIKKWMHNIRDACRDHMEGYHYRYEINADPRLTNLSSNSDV

Row | Binder | Kd [4] [nM] | koff [4] [s⁻¹] | kon [4] [M⁻¹ s⁻¹] | EC50 [5] [nM] | EC50 [6] [nM] | further results
1 | B1 | – | – | – | – | – | EC50 (read off the curve) [1]: ~0.08 nM; Kd [2]: 1.93 nM; koff [2]: 0.000204 s⁻¹; kon [2]: 106000 M⁻¹ s⁻¹; EC50 [3]: 2.61 nM
2 | B2 | 1.48 | 0.000275 | 186000 | 0.56 | 0.11 | IC50 (read off the curve) [7]: ~7 nM; IC50 (read off the curve) [8]: ~10 nM; IC50 (read off the curve) [9]: ~8 nM
3 | B3 | 0.302 | 0.000126 | 418000 | 0.18 | 0.21 | IC50 (read off the curve) [10]: ~9 nM
4 | B4 | 0.413 | 0.000222 | 538000 | 0.19 | 0.17 | IC50 (read off the curve) [11]: ~4 nM; Kd [12]: 0.839 nM and 0.537 nM; koff [12]: 0.000336 s⁻¹ and 0.00033 s⁻¹; kon [12]: 401000 M⁻¹ s⁻¹ and 615000 M⁻¹ s⁻¹
5 | B5 | 0.0565 | 0.000183 | 3.24e+06 | 0.37 | 0.14 | IC50 (read off the curve) [13]: ~5 nM; Kd [14]: 0.463 nM; koff [14]: 0.000107 s⁻¹; kon [14]: 231000 M⁻¹ s⁻¹; EC50 [15]: 0.27 nM and 0.13 nM and 0.23 nM; EC50 (read off the curve) [16]: 5 nM
